The target of the assay is native OspA on the surface of live B. burgdorferi B31 (Borrelia burgdorferi strain B31 …, UniProt P0CL66). Briefly: flow cytometry on cells. Background: In flow cytometry, cells or beads pass a laser one at a time.

The values below come from paper doi:10.1101/2024.01.23.576890 (bioRxiv, 2024).

Chain of native OspA on the surface of live B. burgdorferi B31 (P0CL66 17-273): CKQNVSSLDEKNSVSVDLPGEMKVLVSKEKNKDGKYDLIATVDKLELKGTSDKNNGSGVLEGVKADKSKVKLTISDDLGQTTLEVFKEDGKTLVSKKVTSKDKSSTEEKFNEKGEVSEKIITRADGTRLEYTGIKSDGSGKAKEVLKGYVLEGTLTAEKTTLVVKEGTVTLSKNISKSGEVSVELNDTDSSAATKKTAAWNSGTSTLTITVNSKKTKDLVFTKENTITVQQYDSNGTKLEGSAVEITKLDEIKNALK

B1: LA-2 (bin 3 OspA monoclonal antibody; chimeric LA-2 IgG1) (antibody, V domains shown)
VH: QIQLVQSGPELKKPGETVKISCKASGYTFTDYSMYWVKQAPGKGLKRMGWINTETGEPTYADDFKGRFALSLDTSASTAYLHISNLKNEDTATYFCARGLDSWGQGTSVTVSS
VL: DIQMTQSPSSLSATLGGKVTITCKASQDINKYIAWYQHKPGKGPRLLIHYTSTLQPGNPSRFSGSGSGRDYSFSISNLEAEDIAIYYCLQYDNLQRTFGGGTKVEIK
Turning to B1, the binding result is recorded as “binds”.
